Source: IntAct's records for PubMed 29858488

B1: Motile sperm domain-containing protein 2 (Homo sapiens), Q8NHP6 (parent)
chain: MAENHAQNKAKLISETRRRFEAEYVTDKSDKYDARDVERLQQDDNWVESYLSWRHNIVDETLKMLDESFQWRKEISVNDLNESSIPRWLLEIGVIYLHGYDKEGNKLFWIRVKYHVKDQKTILDKKKLIAFWLERYAKRENGKPVTVMFDLSETGINSIDMDFVRFIINCFKVYYPKYLSKIVIFDMPWLMNAAFKIVKTWLGPEAVSLLKFTSKNEVQDYVSVEYLPPHMGGTDPFKYSYPPLVDDDFQTPLCENGPITSEDETSSKEDIESDGKETLETISNEEQTPLLKKINPTESTSKAEENEKVDSKVKAFKKPLSVFKGPLLHISPAEELYFGSTESGEKKTLIVLTNVTKNIVAFKVRTTAPEKYRVKPSNSSCDPGASVDIVVSPHGGLTVSAQDRFLIMAAEMEQSSGTGPAELTQFWKEVPRNKVMEHRLRCHTVESSKPNTLTLKDNAFNMSDKTSEDICLQLSRLLESNRKLEDQVQRCIWFQQLLLSLTMLLLAFVTSFFYLLYS
partner: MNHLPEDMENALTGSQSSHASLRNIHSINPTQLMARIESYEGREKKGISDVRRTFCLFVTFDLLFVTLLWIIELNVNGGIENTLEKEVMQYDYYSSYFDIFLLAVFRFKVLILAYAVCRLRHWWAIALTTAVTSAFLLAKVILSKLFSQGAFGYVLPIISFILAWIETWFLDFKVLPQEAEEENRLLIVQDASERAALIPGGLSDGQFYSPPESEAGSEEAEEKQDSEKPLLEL
B2: Oxysterol-binding protein-related protein 1 (Homo sapiens), Q9BXW6 (parent)
chain: MNTEAEQQLLHHARNGNAEEVRQLLETMARNEVIADINCKGRSKSNLGWTPLHLACYFGHRQVVQDLLKAGAEVNVLNDMGDTPLHRAAFTGRKELVMLLLEYNADTTIVNGSGQTAKEVTHAEEIRSMLEAVERTQQRKLEELLLAAAREGKTTELTALLNRPNPPDVNCSDQLGNTPLHCAAYRAHKQCALKLLRSGADPNLKNKNDQKPLDLAQGAEMKHILVGNKVIYKALKRYEGPLWKSSRFFGWRLFWVVLEHGVLSWYRKQPDAVHNIYRQGCKHLTQAVCTVKSTDSCLFFIKCFDDTIHGFRVPKNSLQQSREDWLEAIEEHSAYSTHYCSQDQLTDEEEEDTVSAADLKKSLEKAQSCQQRLDREISNFLKMIKECDMAKEMLPSFLQKVEVVSEASRETCVALTDCLNLFTKQEGVRNFKLEQEQEKNKILSEALETLATEHHELEQSLVKGSPPASILSEDEFYDALSDSESERSLSRLEAVTARSFEEEGEHLGSRKHRMSEEKDCGGGDALSNGIKKHRTSLPSPMFSRNDFSIWSILRKCIGMELSKITMPVIFNEPLSFLQRLTEYMEHTYLIHKASSLSDPVERMQCVAAFAVSAVASQWERTGKPFNPLLGETYELVRDDLGFRLISEQVSHHPPISAFHAEGLNNDFIFHGSIYPKLKFWGKSVEAEPKGTITLELLEHNEAYTWTNPTCCVHNIIVGKLWIEQYGNVEIINHKTGDKCVLNFKPCGLFGKELHKVEGYIQDKSKKKLCALYGKWTECLYSVDPATFDAYKKNDKKNTEEKKNSKQMSTSEELDEMPVPDSESVFIIPGSVLLWRIAPRPPNSAQMYNFTSFAMVLNEVDKDMESVIPKTDCRLRPDIRAMENGEIDQASEEKKRLEEKQRAARKNRSKSEEDWKTRWFHQGPNPYNGAQDWIYSGSYWDRNYFNLPDIY
partner: B1 chain
B3: Ceramide transfer protein (Homo sapiens), Q9Y5P4 (parent)
chain: MSDNQSWNSSGSEEDPETESGPPVERCGVLSKWTNYIHGWQDRWVVLKNNALSYYKSEDETEYGCRGSICLSKAVITPHDFDECRFDISVNDSVWYLRAQDPDHRQQWIDAIEQHKTESGYGSESSLRRHGSMVSLVSGASGYSATSTSSFKKGHSLREKLAEMETFRDILCRQVDTLQKYFDACADAVSKDELQRDKVVEDDEDDFPTTRSDGDFLHSTNGNKEKLFPHVTPKGINGIDFKGEAITFKATTAGILATLSHCIELMVKREDSWQKRLDKETEKKRRTEEAYKNAMTELKKKSHFGGPDYEEGPNSLINEEEFFDAVEAALDRQDKIEEQSQSEKVRLHWPTSLPSGDAFSSVGTHRFVQKPYSRSSSMSSIDLVSASDDVHRFSSQVEEMVQNHMTYSLQDVGGDANWQLVVEEGEMKVYRREVEENGIVLDPLKATHAVKGVTGHEVCNYFWNVDVRNDWETTIENFHVVETLADNAIIIYQTHKRVWPASQRDVLYLSVIRKIPALTENDPETWIVCNFSVDHDSAPLNNRCVRAKINVAMICQTLVSPPEGNQEISRDNILCKITYVANVNPGGWAPASVLRAVAKREYPKFLKRFTSYVQEKTAGKPILF
partner: B1 chain
B4: Motile sperm domain-containing protein 2 (Homo sapiens), Q8NHP6 (parent)
chain: B1 chain
partner: B3 chain
B5: Motile sperm domain-containing protein 2 (Homo sapiens), Q8NHP6 (parent)
chain: B1 chain
partner: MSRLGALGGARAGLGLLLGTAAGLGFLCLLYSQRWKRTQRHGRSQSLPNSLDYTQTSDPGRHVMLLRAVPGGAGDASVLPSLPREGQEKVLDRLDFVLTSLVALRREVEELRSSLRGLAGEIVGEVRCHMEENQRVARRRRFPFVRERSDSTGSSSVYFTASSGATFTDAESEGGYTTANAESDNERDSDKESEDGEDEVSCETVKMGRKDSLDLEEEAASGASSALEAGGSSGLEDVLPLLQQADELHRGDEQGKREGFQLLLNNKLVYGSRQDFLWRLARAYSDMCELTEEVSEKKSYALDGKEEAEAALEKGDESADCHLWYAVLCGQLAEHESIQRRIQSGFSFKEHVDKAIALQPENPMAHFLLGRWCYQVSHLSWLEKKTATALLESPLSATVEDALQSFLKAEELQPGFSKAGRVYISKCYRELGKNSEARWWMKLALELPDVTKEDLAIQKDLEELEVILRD
B6: STARD3 N-terminal-like protein (Homo sapiens), O95772 (parent)
chain: B1 partner
partner: B1 chain

Variants of: B1
Settings: with str3n_human STARD3NL

| Variant | effect of a mutation on the interaction |
| --- | --- |
| MAENHAQNKAKLISETRRRFEAEYVTDKSDKYDARDVERLQQDDNWVESYLSWRHNIVDETLKMLDESFQWRKEISVNDLNESSIPRWLLEIGVIYLHGYDKEGNKLFWIRVKYHVKDQKTILDKKKLIAFWLERYAKRENGKPVTVMFDLSETGINSIDMDFVRFIINCFKVYYPKYLSKIVIFDMPWLMNAAFKIVKTWLGPEAVSLLKFTSKNEVQDYVSVEYLPPHMGGTDPFKYSYPPLVDDDFQTPLCENGPITSEDETSSKEDIESDGKETLETISNEEQTPLLKKINPTESTSKAEENEKVDSKVKAFKKPLSVFKGPLLHISPAEELYFGSTESGEKKTLIVLTNVTKNIVAFKVRTTAPEKYRVKPSNSSCDPGASVDIVVSPHGGLTVSAQDDFDIMAAEMEQSSGTGPAELTQFWKEVPRNKVMEHRLRCHTVESSKPNTLTLKDNAFNMSDKTSEDICLQLSRLLESNRKLEDQVQRCIWFQQLLLSLTMLLLAFVTSFFYLLYS [R404D;L406D] | disrupting interaction strength |

Variants of: B2
Settings: with mspd2_human MOSPD2, Q8NHP6

| Variant | effect of a mutation on the interaction |
| --- | --- |
| F476A;Y477A | disrupting interaction strength |

Variants of: B3
Settings: with mspd2_human MOSPD2, Q8NHP6

| Variant | effect of a mutation on the interaction |
| --- | --- |
| D324A | disrupting interaction strength |

Variants of: B4
Settings: with cert_human CERT1, Q9Y5P4

| Variant | effect of a mutation on the interaction |
| --- | --- |
| MAENHAQNKAKLISETRRRFEAEYVTDKSDKYDARDVERLQQDDNWVESYLSWRHNIVDETLKMLDESFQWRKEISVNDLNESSIPRWLLEIGVIYLHGYDKEGNKLFWIRVKYHVKDQKTILDKKKLIAFWLERYAKRENGKPVTVMFDLSETGINSIDMDFVRFIINCFKVYYPKYLSKIVIFDMPWLMNAAFKIVKTWLGPEAVSLLKFTSKNEVQDYVSVEYLPPHMGGTDPFKYSYPPLVDDDFQTPLCENGPITSEDETSSKEDIESDGKETLETISNEEQTPLLKKINPTESTSKAEENEKVDSKVKAFKKPLSVFKGPLLHISPAEELYFGSTESGEKKTLIVLTNVTKNIVAFKVRTTAPEKYRVKPSNSSCDPGASVDIVVSPHGGLTVSAQDDFDIMAAEMEQSSGTGPAELTQFWKEVPRNKVMEHRLRCHTVESSKPNTLTLKDNAFNMSDKTSEDICLQLSRLLESNRKLEDQVQRCIWFQQLLLSLTMLLLAFVTSFFYLLYS [R404D;L406D] | disrupting interaction strength |

Variants of: B5
Settings: with rmd3_human RMDN3, Q96TC7

| Variant | effect of a mutation on the interaction |
| --- | --- |
| MAENHAQNKAKLISETRRRFEAEYVTDKSDKYDARDVERLQQDDNWVESYLSWRHNIVDETLKMLDESFQWRKEISVNDLNESSIPRWLLEIGVIYLHGYDKEGNKLFWIRVKYHVKDQKTILDKKKLIAFWLERYAKRENGKPVTVMFDLSETGINSIDMDFVRFIINCFKVYYPKYLSKIVIFDMPWLMNAAFKIVKTWLGPEAVSLLKFTSKNEVQDYVSVEYLPPHMGGTDPFKYSYPPLVDDDFQTPLCENGPITSEDETSSKEDIESDGKETLETISNEEQTPLLKKINPTESTSKAEENEKVDSKVKAFKKPLSVFKGPLLHISPAEELYFGSTESGEKKTLIVLTNVTKNIVAFKVRTTAPEKYRVKPSNSSCDPGASVDIVVSPHGGLTVSAQDDFDIMAAEMEQSSGTGPAELTQFWKEVPRNKVMEHRLRCHTVESSKPNTLTLKDNAFNMSDKTSEDICLQLSRLLESNRKLEDQVQRCIWFQQLLLSLTMLLLAFVTSFFYLLYS [R404D;L406D] | disrupting interaction strength |

Variants of: B6
Settings: with mspd2_human MOSPD2, Q8NHP6

| Variant | effect of a mutation on the interaction |
| --- | --- |
| MNHLPEDMENALTGSQSSHASLRNIHSINPTQLMARIESYEGREKKGISDVRRTFCLFVTFDLLFVTLLWIIELNVNGGIENTLEKEVMQYDYYSSYFDIFLLAVFRFKVLILAYAVCRLRHWWAIALTTAVTSAFLLAKVILSKLFSQGAFGYVLPIISFILAWIETWFLDFKVLPQEAEEENRLLIVQDASERAALIPGGLSDGQAASPPESEAGSEEAEEKQDSEKPLLEL [F208A;Y209A] | disrupting interaction strength |
